Key:
[1] = tested on: CD44 (predominantly standard isoform CD44s) on human TNBC cells (Homo sapiens (Cis-Pt-R, MDA-MB-231, BT-549 cells)), P16070-12; assay: flow cytometry cell binding; conditions: apparent Kd on whole Cis-Pt-R cells; 2'-fluoro pyrimidines (2'F-Py) in the entire sequence; Flow cytometry: 150 nM Alexa 647-sTN58, serum-free medium, 0.1 mg/mL yeast tRNA, 0.1 mg/mL salmon sperm DNA, 10 min RT, after 30-fold excess unlabeled SCR …; cited from earlier work
[2] = tested on: CD44 (predominantly standard isoform CD44s) on human TNBC cells (Homo sapiens (Cis-Pt-R, MDA-MB-231, BT-549 cells)), P16070-12; assay: flow cytometry cell binding with siRNA knockdown; conditions: 150 nM aptamer, 2'-fluoro pyrimidines (2'F-Py) in the entire sequence, Flow cytometry: 150 nM Alexa 647-sTN58, serum-free medium, 0.1 mg/mL yeast tRNA, 0.1 mg/mL salmon sperm DNA, 10 min RT, after 30-fold excess unlabeled SCR …, scale: % reduction of binding on CD44 knockdown vs siRNA ctrl

Chain of CD44 (predominantly standard isoform CD44s) on human TNBC cells (Homo sapiens (Cis-Pt-R, MDA-MB-231, BT-549 cells)), P16070-12 (P16070 other isoform, or with tags, fused parts or gaps): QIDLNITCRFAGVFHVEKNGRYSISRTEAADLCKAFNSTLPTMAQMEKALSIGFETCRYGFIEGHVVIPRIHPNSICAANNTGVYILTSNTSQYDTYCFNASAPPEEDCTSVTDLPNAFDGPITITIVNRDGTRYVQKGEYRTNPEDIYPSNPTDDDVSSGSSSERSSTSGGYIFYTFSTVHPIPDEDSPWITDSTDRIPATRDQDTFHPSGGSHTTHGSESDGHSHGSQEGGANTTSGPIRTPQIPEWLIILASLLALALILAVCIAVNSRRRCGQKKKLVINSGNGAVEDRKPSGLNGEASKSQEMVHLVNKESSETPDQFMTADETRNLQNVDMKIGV

With “GGACAUAUGAUGCAACGUUGUGGUCCCGUUUGCACUUUGUUUACG [sTN58]” as the sequence, how does the Kd [1] read?
The Kd was 10 nM.

And the binding signal [2]?
Its binding signal is 55.
